For assay [1], the target named is SUN domain of human SUN1 (amino acid residues 616–812), tags removed (human). Nature of the assay: SEC-MALS; co-expressed and co-purified samples at >1 mg/ml on Superdex 200 Increase 10/300 GL in 20 mM Tris pH 8.0, 150 mM KCl, 2 mM DTT. In general terms: SEC sorts molecules by how far they enter the pores of the column.
For assay [2] the target is unchanged. Nature of the assay: SEC-MALS; SUN1-KASH4 after removal of bound zinc by treatment with EDTA.
In assay [3] the target is SUN1 I673E (SUN domain of human SUN1, residues 616–812, I673E), GCN4 tag removed (human). The assay can be described thus: SEC-MALS; co-expressed and co-purified samples at >1 mg/ml on Superdex 200 Increase 10/300 GL in 20 mM Tris pH 8.0, 150 mM KCl, 2 mM DTT.

On to GPSPPPTWPHLQLCYLQPPPV (domain or fragment) [KASH domain of human KASH5 (amino acid residues 542–562), tags removed], for which, in assay [1], the stoichiometry N (binder:target ratio (6:6)) was determined as 1.

For ASGGPCCSHARIPRTPYLVLSYVNGLPPV (domain or fragment) [KASH domain of human Nesprin-4 (KASH4, amino acid residues 376–404), tags removed], the stoichiometry N (binder:target ratio (6:6)) in assay [2], in assay [1] and in assay [3] was 1 throughout. Besides, in assay [2], the stoichiometry N (binder:target ratio (12:12)) was 1.

(Values after article PMC7800377.)
